Measurements taken from US10801046B2, “Methods and materials for biosynthesizing multifunctional, multivariate molecules via carbon chain modification” (INVISTA NORTH AMERICA S.A.R.L., priority 2016, dated 2020).

How the values were obtained:
Format in all cases: cell-based, Escherichia coli
[1] = In vivo carboxylate reductase screening, substrate consumption by LC-MS, heptanedioate; conditions: 541 enzymes screened in vivo
Description: To screen carboxylate reductases in vivo, […] T7- pUC expression vectors was co-transformed into T7 Express lysY/Iq with the phosphopantetheinyl transferase sfp from Bacillus subtilis on a T7-pCDF expression vector. Biological duplicates of the resulting strains were incubated in 0.5 mL of terrific broth containing either 1 g/L heptanedioate or 1 g/L monomethyl heptanedioate and supplemented with 0.4 mM IPTG in 96-well deep well plates. The plates were incubated for 30 h at 30° C. in a shaking incubator. The cells were then pelleted, and culture supernatants from the same strains in media containing either heptanedioate or monomethyl heptanedioate were combined. The combined supernatants were analyzed by LC-MS to determine the concentration of heptanedioate and monomethyl heptanedioate. Carboxylate reductase activity on heptanedioate or monomethyl heptanedioate was reflected by consumption of the respective substrate in the medium.

heptanedioyl-ACP = conditions: top 150 hits screened in vivo
[2] = system: heptanedioyl-ACP methyl ester

Molecule	substrate preference, heptanedioic acid to 7-oxoheptanoate [1]	activity toward heptanedioyl-ACP in vivo (heptanedioyl-ACP)	further results
SEQ ID NO: 196: Chromera velia CCMP2878 carboxylate reductase (protein, Chromera velia CCMP2878, Chromera velia CCMP2878 carboxylate reductase) MGAQCSAKNSLTYSIPYGEPQAEDESALYANPYMPELAGCDGLKSCWENFEVAVSSTGDKPAVGTREKQADGTLGKYVWKSWKEVAETVANLHAGLQSLDAFPLQSFPEESVQQTFKFLGVTGKNREEYLETMLAAYRAGVCLVPLYDTLGENTYEYCINQTGLKTVIVGDLKIASKLLHVAKKCECFKIIVCMDAVSDELKQEANASGVTIHSFEEVCEIGKQKPVDPTPAQSDMEINTICYTSGTTGNPKGVLVTHRALLTALSTSDELFKKEGFKIDFNDTHISYLPYAHVMERAVTEICVRRGMRIAFYSGDTTKIVDDIQLARPTVFFSVPRLYTRIYDRILSQAAAAGGIKKSLFDRALESKLTELRSTGNFTHKLWDAIVFSKIKDVLGGRVRFLVTGSAPMAKEVQEVLKVCFCCPMMEAFGMTETACCGTATAALDPTTGHVGGVVPGILLKVKGIPEMGYSPNDRGENGELMPRGELMVKGAAVFPGYFKEPEKTKEALDADGWLRTGDVCVINPNGSFKIIDRAKNIFKLAQGEYVAPEKIENIYIQCESVAQAFVTGYGTEKVLVCVVVPDEGYAKNWAKEKGLEGDAASLSALCATHGDLEAEVFKQIDAIGKARGLSGIEKAKAVRLYAEPFSVENDLLTATFKLKRHQANKTFKAQIDEMYAELNAKEKARGGS	preferred acting upon heptanedioic acid to form 7-oxoheptanoate		
SEQ ID NO: 73: Thalassospira xiamenensis M-5 thioesterase (protein, Thalassospira xiamenensis M-5 = DSM 17429, Thalassospira xiamenensis M-5 thioesterase) MTIQWDEIAKPALPANCGWRGTYRVRYSEIGDNGLAMLPALADYMQDAAGWGARILKLAYDDTVDKGMAWVLARMVIHVRRYPGNGEDIIVETWPSGVARRVATRDFRLIDSSGDVIAVAQSFWVMFDLLERRAASWPDWIEERLPKPPGPKLIEPPFRPPFTTDPLPEIDSIKARPSDLDLYGHVNNVRLMQWVLGATGADSKPDFHPESIDIQFRTECRVQERVTVRQKDGFAAITRDGDGVDLVRAHVVPKNRTALA		displayed considerable activity toward heptanedioyl-ACP	impact on monomethyl heptanedioate production ([2]; 146 thioesterases screened): promising; activity toward heptanedioyl-ACP methyl ester in vivo ([2]; top 150 hits screened in vivo): showed activity toward heptanedioyl-ACP methyl ester
SEQ ID NO: 206: Phytophthora sojae (strain P6497) carboxylate reductase (protein, Phytophthora sojae (strain P6497), Phytophthora sojae (strain P6497) carboxylate reductase) MGAGSSSELPMSQIDFDSYTGKRYTVEVPNTRDATHGPAYEVADKEPVNEDEMTLYHNFLRGCSIEHGTRPLYGRRTVDADTGKAGAFEWLTYNEVKTRVERVASGLKAVGALERQDVVGVFSKNQLEWCLVAHACDRMSYVLVPLYDTLGPDAVPFIVNHTELRVLFCGKKQFDVVMDCVKDCPTLKTIVQFEPVTEQQIQQAAAKNLELRSLEELELLGEADPKRADPPKPTDVSTLCYTSGTTGDPKGVILLQRNYAYVVRQMCKRMQIFPSDVHCSYLPLAHVFERSVLGVLQAHGASAGFYQGDLLTLMDDLVELKPTVFVSVPRLFNRVYDKITQGVAAAGGLKKILFDRALAAKLAGLPEGHKTHALWDALVFSKVRLALGGRVRLIFSGSAPLSAEVKEFMKVVFCCDVAEGYGLSETAAAVTVGSVDMPMGPHVGCPLIYGQVQLEDVPEMGYTSRDKPRPRGEILVKGPMIFSGYYKEPEKTREAIDERGWFHTGDIGCWNADGTLSIIDRKKNIFKLAQGEYVAAEKIENIYAKSKYVAQIFAYGDSLQSCLVGIVVPDPETAEAWAQEKGLTGADASAAKVATNPEFQKAVLADMARVAKEAQLRGFEFVKSVHFHPEPFSLEQGLITPTFKLKRPQLKAHFQQQINMLYEGLK	preferred acting upon heptanedioic acid to form 7-oxoheptanoate		
SEQ ID NO: 205: Kuraishia capsulata CBS 1993 carboxylate reductase (protein, Kuraishia capsulata CBS 1993, Kuraishia capsulata CBS 1993 carboxylate reductase) MPSLPLPPYRAVFERAEDITRDALPFPPERNQRGIAVPGSVEPGYSAIYRSAATPDFLYDRVSPELDTYYRILKRSFEIFKDEDCVSERPQTGENSWSDKFVPRSYGEVYHDSLNFGSGLKYLLQKNEFRSGTEIPDKDYIVSIFSRNRAKWLVADISCTLFSLPNTALYDTLGPDTSTYILGLTKSPVVVAASDKISKLLDLKEADPAKLKNLIMLVAMDNLEPEVYSDLSRRAYKLNVKLYEWDQVTEAGILFPHEEVPPAPDSIYSLSFTSGTTGPPKGAILLHSGVAAGVAFTSATIDTPKQKAKLLSILPLAHIYERMTMALQLFRGGCLGFPHQPGPEHIVPNLRLFKPNLFSGVPRLFNKFEGVLKAATVHNPNASPAKRALAKRIIEWKMKQQCSKDGERGESILYDKLLNNKLRAALGFDNLYGVVTGSAPISAETIKFLKAALGVSFHQGYGLTETFAGVCVSAGLETDPGSCGVIGIATECRLKDTPELGYTSSDEGGPRGELLLRGSQVFPGYYKNEEETKKALDEDGWYHTGDIARIDSKCRIYVIDRVKNLFKLSQGEYVAPERIENIYLSSCTDFVSQIYVHGDSFSNYLVGIVGVDILGLSAFLKRKHPDLWRQVEGKTPEEILDIISSSRQLKSAILAQMNRNVSSAGLNGYEKLHNLKIGIEPLKVEDEVLTPTLKLKRNNALTKFNTDLKNLYEEGSLIKNEKL	preferred acting upon heptanedioic acid to form 7-oxoheptanoate		
SEQ ID NO: 85: Ferrimonas balearica thioesterase (protein, Ferrimonas balearica (strain DSM 9799 / CCM 4581 / PAT), Ferrimonas balearica thioesterase) MVRRSLLILMLCLYQPGAWADQPSILILGDSLSASYGMSEAEGWVKKLQQNLPDAQIINASVSGETSGGGLRRLPGLLQQHQPDWVFVELGGNDGLRGFQPTITENNIEQLITLSKASGAQVLLSEVMVPPNYGRRYAERFQQIYHGLAKEHEVELVPFFMTEIATDPNLMQADGIHPNREAQGRIAAFLLPWFEQAIAE		displayed considerable activity toward heptanedioyl-ACP	
SEQ ID NO: 195: Halobacteriovorax marinus thioesterase (protein, listed as Halobacteriovorax marinus, Halobacteriovorax marinus (strain ATCC BAA-682 / DSM 15412 / SJ), Halobacteriovorax marinus thioesterase) MKSPVFKKKYQVSISNVNINKRLGLFGLLGYLQDIATLHAEIAGFGLDEMISSNSFWVLVRQEIRMNKFPKWNDEIEIQTWSRTPQGMYAFREFEFFLNDEKVGSCSTAWMILSGDTRRIKKPDFPIEKINPRLDSLLDYCAERIKVLDNFELVNEIKVRISDLDLNMHVNNTKYTQWVLDSIPIELHKSAKLRNYQINFLKEAHLGDEIDIYRASSAKDESAHDTQFKGIRRSDQSTIFYVNIIADT		displayed considerable activity toward heptanedioyl-ACP	
SEQ ID NO: 197: Cyberlindnera jadinii carboxylate reductase (protein, listed as Cyberlindnera jadinii) MNFNQPVNPQPVPGSRVEGYSEIFTNDPPVVLDPSMDTLSKMWNNAVANFANFDCMGVRKFHNTRKQQLDTFFTYDSYAEVDRKKHNISCGIIHLVTHHPKYRELLSIAGKPEFVVGILSPNRYEWMLVDLATRDFSLTNTALYPTLGQQSSQYILSVTESPIIFLTKDQIPKILEIKPELPLLNILVSLDDFDHDDHDLFVRAQSLGVSLVDFRAVEKIGERHPLPKDFNPPTTDTIYTISFTSGTTGNPKGVLIPHEMAACGIISCTMGLESPFELPKGAKRRQFGENVDQHGVQVTALCHLPLAHIYEREISNYALMSGFRLGFPSSTNPAMFFDDLKSIKPHYLASVPRVYNKLDALLKAKVKRGTPPHVVRKTFGLDHCRYLVSGSAPLGVETIKYLKQTLDIGFSVCYGSTETFAGFFFGDAFEDVITNSCGHPSASVQIRLRDVPEMGYHTNETPMRGELMVKGPQVFSEYFKNPKATADSFDKDGWFHTGDIVSMDSERRVYIIDRVKNFFKLQQGEFVTPERIENIYLAHSPLLTQLFVHGDSLQNFLVGVAGISLEYVQEMFKQDFGVAISQDEVLGLLQDPKYKAMLIKQLNHHVSGADLQGFEKIHNIHVDLEPLRLEDEVLTPTMKIKRENAKKKFAPILEKLYTEGSLVVKQKL	preferred acting upon heptanedioic acid to form 7-oxoheptanoate		
SEQ ID NO: 193: Pseudomonas fluorescens thioesterase (protein, listed as Pseudomonas fluorescens) MRVWFLSAGLALMCMAQNAAAGTVLIVGDSISAGFGLDTRLGWVSLLEQRLEQEGFDDKVVNASISGDTSAGGQARLPALLAEHKPDLVILELGGNDGLRGMPPTQLQQNLAAMIDSSRQSGAKVLLLGMQLPPNYGKRYTDAFAEVYGKLADDKKIPLVPFFLDGVGGHPDLMQADGLHPAAGAQGKLLENVWPTLKPLL		displayed considerable activity toward heptanedioyl-ACP	
SEQ ID NO: 194: Pseudomonas stutzeri (strain A1501) thioesterase (protein, Pseudomonas stutzeri (strain A1501), Pseudomonas stutzeri (strain A1501) thioesterase) MRRWLKCGALALLCWTQGALAGTVLVVGDSISAAFGLETSQGWVHLLQERLVEGDESWRVVNASISGDTTAGGLARLDPLLEEHTPEVVILELGGNDGLRGQSPVQLKQNLADMIDRSREAGAEVLLLGMRMPPNLGQRYTRAFADAFDSLAQEKSVAYVPFLLEGVGGVAGMMQADGIHPTAEAQSQLLETVWPALEPLL		displayed considerable activity toward heptanedioyl-ACP	
